The results in this text go back to the supplement of paper PMC10724198.

± gives the standard deviation of the averaged measurements.
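Further: PSI is a weighted mean of sequencing reads over stability bins, variants kept only with over 10 reads, mCherry proximal and sfGFP distal, peptide attached via GGGS linker.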

The subject of this series is Saccharomyces cerevisiae. The series can be described thus: protein stability index of tFT-peptide fusion (C-terminal peptide) (PSI (0-1 scale)); higher = more stable (slower turnover). The conditions noted are these: genetic background: wild type; temperature: 30 C.
NGRENVHEWQRG yielded a protein stability index of 0.711 ± 0.018.
For NGRTSRVMKDRK, the protein stability index worked out at 0.6793 ± 0.0035.
Next, NGSLRVVSGGFC: 0.63 ± 0.048.
Next, NGSPFFFNRLFT: 0.702 ± 0.033.
Next, NGTGGGSSLAFG: 0.644 ± 0.019; NGWGKWTKTVCQ: 0.646 ± 0.02.
Consider NHIASQASRRGR, for which the protein stability index worked out at 0.637 ± 0.069.
Then NHPCPFSELPQL, with 0.758 ± 0.11.
Then NIKHTDKPNHIN, with 0.609 ± 0.011.
Next, NIKKKINNTVKN: 0.666 ± 0.0073; NIMSSFFLTFHR: 0.719 ± 0.017; NINYETNKQTDR: 0.668 ± 0.022.
In turn, NISSFKHVLAYK registered a protein stability index of 0.624 ± 0.06.
Next, NKIVKYSKIRYK: 0.678 ± 0.018.
Then NKKKKENTKKRK, with 0.721 ± 0.18; and NKKKKKKRKRVK, with 0.701 ± 0.049.
Next, NKKKKKKRNGAP: 0.658 ± 0.028; NKKKNKKKNKKK: 0.676 ± 0.032.
NKKKNLRYKHRI returned a protein stability index of 0.643 ± 0.1.
NKNDINRMVQVS registered a protein stability index of 0.6754 ± 0.0062.
Next, NKNNCKLISEKF: 0.721 ± 0.026; NKNNITKKRKKD: 0.749 ± 0.064; NKNRKNQNKGKR: 0.743 ± 0.069.
NKQKKKKSTKRN came in with a protein stability index of 0.704 ± 0.029.
Next, NKVISETKKLDN: 0.64983 ± 0.00019.
Next, NLAGLVREYSGY: 0.684 ± 0.011; NLGRGYLVFRGM: 0.709 ± 0.062.
Next, NLLPFLGPLPRS: 0.781 ± 0.067; NLQKTRNRRTVE: 0.643 ± 0.011.
As to NNANDKKNKRKK, the protein stability index came to 0.664 ± 0.044.
In the case of NNEETIKQKNLQ, the protein stability index is 0.702 ± 0.025.
Then NNRVVRGRKWGG, with 0.682 ± 0.015.
Then NPFLHQSMGQLT, with 0.724 ± 0.078; and NPGLGLSCPSPP, with 0.701 ± 0.043; and NQERYKKIRSKQ, with 0.714 ± 0.054.
Next, NRAVTRKRKEEK: 0.664 ± 0.03.
In turn, NRGRIRARVNEA had a protein stability index of 0.708 ± 0.07.
Next, NRGTRQIIIKKK: 0.653 ± 0.038; NRLPGNLKKKDN: 0.687 ± 0.019; NRLRNAGEPTND: 0.782 ± 0.069.
Then NRYKINHRIKCK, with 0.576 ± 0.032.
Next, NRYRILDKLRRK: 0.6618 ± 0.0026.
As to NSHRYDSNIPDS, the protein stability index was 0.685 ± 0.057.
Next, NSLGRRRSYPTL: 0.839 ± 0.039; NSLLSFLPDPFH: 0.749 ± 0.0096.
Then NSRASHPTNQII, with 0.789 ± 0.054.
Next, NSSKHAWAWPVP: 0.68 ± 0.029; NSYVGSSTYVIV: 0.692 ± 0.033; NTNNKKNSKHSN: 0.661 ± 0.02.
Turning to NTQPSNRTQRKY, the protein stability index amounted to 0.669 ± 0.1.
As for NTTQKKKGGRKA, the protein stability index worked out at 0.747 ± 0.15.
Next, NVIGGGRSAGLV: 0.609 ± 0.053; NVKIDNKQRKNK: 0.746 ± 0.019.
Next, NVNAVAVILGAC: 0.562 ± 0.0061.
Turning to NVRKWSREDQTG, the protein stability index stood at 0.6679 ± 0.00079.
NWARLGVRMGAA had a protein stability index of 0.66 ± 0.013.
Then NWKNENGRELEE, with 0.7 ± 0.029; and NYLPLCCSMLAG, with 0.588 ± 0.015.
Next, PAAIARNPLPHR: 0.605 ± 0.075.
Consider PAALPHTPSAPY, for which the protein stability index was 0.666 ± 0.04.
Next, PAASHPPRWPRR: 0.75 ± 0.049; PACFESCGLWGF: 0.75 ± 0.039; PACSFPPPPFSA: 0.703 ± 0.1.
Next, PACSPLLAARVT: 0.711 ± 0.061; PADAPPPTRPEA: 0.724 ± 0.032; PAFVPPFTPATP: 0.76 ± 0.033.
Next, PAGLITRSWNLV: 0.565 ± 0.028; PALRTTRCLPLP: 0.703 ± 0.019; PAPCPLFVPSPT: 0.655 ± 0.012.
For the sequence PAPLLPLSPPRP, the protein stability index came out at 0.709 ± 0.042.
Then PAPLPADTFVEC, with 0.668 ± 0.065; and PAPLPPRPTSLP, with 0.711 ± 0.011; and PAPPPPLLPRSL, with 0.727 ± 0.011.
In the case of PAPPPPPPPPLH, the protein stability index was 0.701 ± 0.083.
Next, PAPPPPPTDTPP: 0.623 ± 0.0095; PAPPPVLDTPLP: 0.6018 ± 0.0057; PAPRPLSPPPTF: 0.699 ± 0.0091.
Then PARCRPSSPAPL, with 0.726 ± 0.016; and PARLLIEFPSYS, with 0.684 ± 0.021.
Then PARPIPFPQPCY, with 0.538 ± 0.032.
PARPLFAPSFFT returned a protein stability index of 0.699 ± 0.047.
Then PASSAPLSLLPC, with 0.655 ± 0.084; and PASSSFVCAVSR, with 0.783 ± 0.091; and PATRHSRLPPAS, with 0.67 ± 0.018.
Next, PATRIDAFPPVP: 0.685 ± 0.022; PAVARPLGPPPY: 0.714 ± 0.045; PAVRGEMYLGVG: 0.685 ± 0.014.
In turn, PCAFSLPPLQIP showed a protein stability index of 0.7 ± 0.012.
PCGGGGRECVRG came in with a protein stability index of 0.808 ± 0.1.
Sequence PCLPPPLRLPPN registered a protein stability index of 0.631 ± 0.054.
With PCLVLSLYSDLP, the protein stability index came out at 0.68 ± 0.032.
For PCPPAPPRFLLR, the protein stability index came to 0.732 ± 0.016.
Next, PCPPRSLPPPTS: 0.835 ± 0.16; PCSSFPTFPRRL: 0.715 ± 0.017.
PCVCLRWTGKAF: the protein stability index amounted to 0.532 ± 0.031.
Next, PCVPSRTISLPE: 0.684 ± 0.031; PDGGFSSVVSLR: 0.686 ± 0.076.
Then PDRQNLSRPEKD, with 0.702 ± 0.0092; and PDRSLASPPTTR, with 0.711 ± 0.069.
In turn, PDSLCLSPPSLP registered a protein stability index of 0.686 ± 0.017.
With PDTCRYTAFHFH, the protein stability index amounted to 0.586 ± 0.02.
For the sequence PDVFLLHASPPG, the protein stability index was 0.66 ± 0.098.
Next, PEKRDIQSGIVD: 0.696 ± 0.024; PFALADSDGDSK: 0.683 ± 0.059; PFFLSFPPSALL: 0.741 ± 0.021.
Then PFFRAPTRPSVF, with 0.716 ± 0.043; and PFLSLPLSPPPP, with 0.71 ± 0.092.
Next, PFPLPPPPSPTP: 0.699 ± 0.03; PFPPLPLPLPLP: 0.7123 ± 0.00013.
PFPRPWRPLPTS displayed a protein stability index of 0.7 ± 0.044.
Next, PFPSPSPLARLP: 0.704 ± 0.054.
Then PFSLSLPPPPLP, with 0.73 ± 0.026.
Then PFSPLPGPPPPP, with 0.733 ± 0.04; and PFSPPPSTQPSY, with 0.754 ± 0.15.
PFSSPPPPCRSC: the protein stability index was 0.718 ± 0.023.
In turn, PFSSVFNPGVLS displayed a protein stability index of 0.644 ± 0.017.
